Assay [1] has as its target Factor Xa. The assay is described as follows: modified prothrombinase complex assay (50 pM FXa, 1.35 µM prothrombin).
The target in assay [2] is Factor Xa. The assay is described as follows: reconstituted prothrombinase complex assay (250 pM FXa, 2.67 µM prothrombin), thrombin generation.
The target of assay [3] is Factor Xa. The assay is described as follows: cell-based or functional assay.

As a reminder, the Ki is the equilibrium dissociation constant of an inhibitor or competing ligand from its target. High values mean weaker binding, low ones tighter binding.

Take “naturally occurring FXa inhibitor isolated from dilute leech saliva (DLS) of Hirudo medicinalis”: the inhibition constant Ki in the assay with Factor Xa [1] was 120 pM; in the assay with Factor Xa [2] it was 72 pM. In the assay with Factor Xa [3], the IC50, prothrombinase complex assay (thrombin generation) came out at 190 pM.

The values above are taken from patent publication EP0696198B1.
